We go through four molecules from US20180057593A1 (published 2018).

The target in assay [1] is T1, single chain CD3εγ heterodimer (UniProt P07766 23-118; P09693 23-103).
T1 chain: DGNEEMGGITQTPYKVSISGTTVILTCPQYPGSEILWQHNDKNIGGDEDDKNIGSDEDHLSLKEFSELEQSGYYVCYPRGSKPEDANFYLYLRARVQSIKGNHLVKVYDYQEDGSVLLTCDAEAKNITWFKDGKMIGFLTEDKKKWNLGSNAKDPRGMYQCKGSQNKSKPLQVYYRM
The assay is described as follows: Biacore.

Assay [2] addresses T1, single chain CD3εγ heterodimer. The assay is described as follows: Biacore.

Read-outs that look alike come from different tables or passages of the source.

B1: Unmasked v4 TDB (bispecific antibody, V domains shown)
VH 1: EVQLVQSGAEVKKPGASVKVSCKASGFTFTSYYIHWVRQAPGQGLEWIGWIYPENDNTKYNEKFKDRVTITADTSTSTAYLELSSLRSEDTAVYYCARDGYSRYYFDYWGQGTLVTVSS
VL 1: DIVMTQSPDSLAVSLGERATINCKSSQSLLNSRTRKNYLAWYQQKPGQSPKLLIYWTSTRKSGVPDRFSGSGSGTDFTLTISSLQAEDVAVYYCKASFILRTFGQGTKVEIK
VH 2: EVQLVESGGGLVQPGGSLRLSCAASGYTFTSYNMHWVRQAPGKGLEWVGAIYPGNGDTSYNQKFKGRFTISVDKSKNTLYLQMNSLRAEDTAVYYCARVVYYSNSYWYFDVWGQGTLVTVSS
VL 2: DIQMTQSPSSLSASVGDRVTITCRASSSVSYMHWYQQKPGKAPKPLIYAPSNLASGVPSRFSGSGSGTDFTLTISSLQPEDFATYYCQQWSFNPPTFGQGTKVEIK
The Kd is a measure of binding affinity in units of concentration. For B1, the Kd in assay [1] and in assay [2] was 119 nM each time.

B2: Unmasked v5 TDB (bispecific antibody, V domains shown)
VH 1: EVQLVQSGAEVKKPGASVKVSCKASGFTFTSYYIHWVRQAPGQGLEWIGWIYPENDNTKYNEKFKDRVTITADTSTSTAYLELSSLRSEDTAVYYCARDGYSRYYFDYWGQGTLVTVSS
VL 1: DIVMTQSPDSLAVSLGERATINCKSSQSLLNSRTRKNYLAWYQQKPGQSPKLLIYWTSTRKSGVPDRFSGSGSGTDFTLTISSLQAEDVAVYYCKQSAILRTFGQGTKVEIK
VH 2: EVQLVESGGGLVQPGGSLRLSCAASGYTFTSYNMHWVRQAPGKGLEWVGAIYPGNGDTSYNQKFKGRFTISVDKSKNTLYLQMNSLRAEDTAVYYCARVVYYSNSYWYFDVWGQGTLVTVSS
VL 2: DIQMTQSPSSLSASVGDRVTITCRASSSVSYMHWYQQKPGKAPKPLIYAPSNLASGVPSRFSGSGSGTDFTLTISSLQPEDFATYYCQQWSFNPPTFGQGTKVEIK
For the molecule B2, the Kd in assay [1] and in assay [2] was 18 nM in each case.

B3: Unmasked v3 TDB (bispecific antibody, V domains shown)
VH 1: EVQLVQSGAEVKKPGASVKVSCKASGFTFTSYYIHWVRQAPGQGLEWIGWIYPENDNTKYNEKFKDRVTITADTSTSTAYLELSSLRSEDTAVYYCARDGYSRYYFDYWGQGTLVTVSS
VL 1: DIVMTQSPDSLAVSLGERATINCKSSQSLLNSRTRKNYLAWYQQKPGQSPKLLIYWTSTRKSGVPDRFSGSGSGTDFTLTISSLQAEDVAVYYCKQSFALRTFGQGTKVEIK
VH 2: EVQLVESGGGLVQPGGSLRLSCAASGYTFTSYNMHWVRQAPGKGLEWVGAIYPGNGDTSYNQKFKGRFTISVDKSKNTLYLQMNSLRAEDTAVYYCARVVYYSNSYWYFDVWGQGTLVTVSS
VL 2: DIQMTQSPSSLSASVGDRVTITCRASSSVSYMHWYQQKPGKAPKPLIYAPSNLASGVPSRFSGSGSGTDFTLTISSLQPEDFATYYCQQWSFNPPTFGQGTKVEIK
With B3, the Kd in assay [1] and in assay [2] was 3.5 nM in each case.

B4: Unmasked v1 TDB (bispecific antibody, V domains shown)
VH 1: EVQLVQSGAEVKKPGASVKVSCKASGFTFTSYYIHWVRQAPGQGLEWIGWIYPENDNTKYNEKFKDRVTITADTSTSTAYLELSSLRSEDTAVYYCARDGYSRYYFDYWGQGTLVTVSS
VL 1: DIVMTQSPDSLAVSLGERATINCKSSQSLLNSRTRKNYLAWYQQKPGQSPKLLIYWTSTRKSGVPDRFSGSGSGTDFTLTISSLQAEDVAVYYCKQSFILRTFGQGTKVEIK
VH 2: EVQLVESGGGLVQPGGSLRLSCAASGYTFTSYNMHWVRQAPGKGLEWVGAIYPGNGDTSYNQKFKGRFTISVDKSKNTLYLQMNSLRAEDTAVYYCARVVYYSNSYWYFDVWGQGTLVTVSS
VL 2: DIQMTQSPSSLSASVGDRVTITCRASSSVSYMHWYQQKPGKAPKPLIYAPSNLASGVPSRFSGSGSGTDFTLTISSLQPEDFATYYCQQWSFNPPTFGQGTKVEIK
Turning to B4, the Kd in assay [1] and in assay [2] was 1.2 nM in each case.
